This is an account of results in PMC2881153.

In data set [1] the target is T1, Fl-Imp3p;Rh-Imp4p (Saccharomyces cerevisiae;Saccharomyces …, UniProt P32899;P53941 1-183;1-290, |).
T1 sequence 1: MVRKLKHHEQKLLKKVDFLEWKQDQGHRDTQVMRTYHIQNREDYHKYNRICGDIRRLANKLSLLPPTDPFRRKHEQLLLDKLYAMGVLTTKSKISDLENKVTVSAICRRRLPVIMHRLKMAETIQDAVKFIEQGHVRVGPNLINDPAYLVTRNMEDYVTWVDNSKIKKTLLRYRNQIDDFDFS
T1 sequence 2: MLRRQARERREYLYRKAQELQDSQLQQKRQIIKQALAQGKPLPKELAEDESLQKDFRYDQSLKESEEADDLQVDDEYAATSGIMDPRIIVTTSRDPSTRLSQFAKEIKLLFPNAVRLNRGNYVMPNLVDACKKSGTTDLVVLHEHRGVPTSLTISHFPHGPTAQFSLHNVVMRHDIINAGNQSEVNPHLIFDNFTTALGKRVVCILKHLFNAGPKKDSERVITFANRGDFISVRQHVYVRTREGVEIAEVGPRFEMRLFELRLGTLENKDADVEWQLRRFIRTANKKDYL
Description: ssFRET.

Data set [2] concerns the target T2, Imp3p (Saccharomyces cerevisiae, UniProt P32899 1-183).
T2 sequence: T1 sequence 1
In words: trFRET.

In data set [3] the target is T3, Imp3p;Imp4p (Saccharomyces cerevisiae;Saccharomyces …, UniProt P32899;P53941 1-183;1-290, |).
T3 sequence 1: T1 sequence 1
T3 sequence 2: T1 sequence 2
In words: trFRET.

The target of data set [4] is T3, Imp3p;Imp4p. Description: trFRET. The source holds these as a separate data set.

Read-outs that look alike come from different tables or passages of the source.

Take GGACGUACUUCAUAGGAUCAUUUCUAUAGGAAUCGUCACUCUUUGACU (structured_RNA) [U3 MINI]: the binding result in data set [1] is “binds”.

With GGACGUACUUCAUAGGAUCAUUUCUAUAGGAAUCGUCACUCUUUGACU (structured_RNA) [Fl-U3 MINI-Rh], the binding result in data set [2] and in data set [3] was “binds” throughout.

B1: Fl-U3 MINI-Rh with 18S (dsRNA)
RNA 1: GGACGUACUUCAUAGGAUCAUUUCUAUAGGAAUCGUCACUCUUUGACU
RNA 2: GGUUGAUCCUGCCAGUA
Consider B1, for which, in data set [4], the binding result is reported as “binds”.
